Values joined by “and” are separate entries in the source; they are usually repeats but may differ in a detail not shown here. Equal entries are not always repeated.

The experiment addresses these 5 target proteins. The experiment can be described thus: split reporter.

B1: Lhs1p (natural protein)
chain: AVLGVDYGQQNIKAIVVSPQAPLELVLTPEAKRKEISGLSIKRLPGYGKDDPNGIERIYGSAVGSLATRFPQNTLLHLKPLLGKSLEDETTVTLYSKQHPGLEMVSTNRSTIAFLVDNVEYPLEELVAMNVQEIANRANSLLKDRDARTEDFVNKMSFTIPDFFDQHQRKALLDASSITTGIEETYLVSEGMSVAVNFVLKQRQFPPGEQQHYIVYDMGSGSIKASMFSILQPEDTTQPVTIEFEGYGYNPHLGGAKFTMDIGSLIENKFLETHPAIRTDELHANPKALAKINQAAEKAKLILSANSEASINIESLINDIDFRTSITRQEFEEFIADSLLDIVKPINDAVTKQFGGYGTNLPEINGVILAGGSSRIPIVQDQLIKLVSEEKVLRNVNADESAVNGVVMRGIKLSNSFKTKPLNVVDRSVNTYSFKLSNESELYDVFTRGSAYPNKTSILTNTTDSIPNNFTIDLFENGKLFETITVNSGAIKNSYSSDKCSSGVAYNITFDLSSDRLFSIQEVNCICQSENDIGNSKQIKNKGSRLAFTSEDVEIKRLSPSERSRLHEHIKLLDKQDKERFQFQENLNVLESNLYDARNLLMDDEVMQNGPKSQVEELSEMVKVYLDWLEDASFDTDPEDIVSRIREIGILKKKIELYMDSAKEPLNSQQFKGMLEEGHKLLQAIETHKNTVEEFLSQFETEFADTIDNVREEFKKIKQPAYVSKALSTWEETLTSFKNSISEIEKFLAKNLFGEDLREHLFEIKLQFDMYRTKLEEKLRLIKSGDESRLNEIKKLHLRNFRLQKRKEEKLKRKLEQEKSRNNNETESTVINSADDKTTIVNDKTTESNPSSEEDILHDEL
For the molecule B1, the normalized interacting score is 83% and 93%.

These data come from doi:10.1101/2024.05.21.594841.
